From the RNAGym collection of RNA variant scans (doi:10.7554/elife.90254)

B1: OR4K15 (parent)
chain: GUUAACGGUCAUAGGCCAUGGAAACUAGGAGCACCAUUUCGCUGCCAGUGAAGAAAUGAACAAAGAAAAUCUGGGCCAGGCAGGCAUCAAAAGAAAUAGUCUUGCGCUCAACCAGAAAGUCUGUAAUCAUUUUAAGGGUA

Variants of: B1
Test: self-cleavage, relative activity (ratio to wild type); higher = more cleavage; in vitro, sequencing; the parent is a self-cleaving ribozyme

Variant | self-cleavage
GUUAACGGUCAUAGGCCAUGGAAACUAGGAGCACCUUUUCGCUGCCAGUGAAGGAAUGAACAAAGAAAAUCUGGGCCAGGCAGGCAUCAAAAGAAAUAGUCUUGCGCUCAACCAGAAAGUCUGUAAUCAUUUUAAGGGUA | 1.02
GUUAACGGUCAUAGGCCAUGGAAACUAGGAGCACCAUUUCGCUGCCAGUGAAGAAAUGAACAAAGAAAAUCUGGGCCAGGCAGGCAGCAAAAGAAAUAGUCUUGCGCUCAACCAGAAAGUCCGUAAUCAUUUUAAGGGUA | 0.68
GUUAACGGUCAUAGGCUAUGGAAACUAGGAGCACCAUUUCGCUGCCAGUGAAGAAAUGAACAAAGAAAAUCUGAGCCAGGCAGGCAUCAAAAGAAAUAGUCUUGCGCUCAACCAGAAAGUCUGUAAUCAUUUUAAGGGUA | 0.13
GUUAACGGUCAUAGGCCAUGGAAACUAGGAGCACCAUUUCGCUGCCAGUGAAGAAAUGAACAAAGAAAAUCUGGGCCAGGCAGGCUUCAAAAGAAAUGGUCUUGCGCUCAACCAGAAAGUCUGUAAUCAUUUUAAGGGUA | 0.37
GUUAACGGUCAUAGGCCUUGGAAACUAGGAGCACCAUUUCGCUGCCAGUGAAGAAAUGAACAAAGAAAAUCUGGGCCAGGCAGGCAUCAAAAGAAAUAGUCUUGCGCUCAACCAGAAAGUCUGUAAUUAUUUUAAGGGUA | 1.55
GUUAACGGUCAUAGGCCAUGGAAACUAGGAGCGCCAUUUCGCUGCCAGUGAAGAAAUGAACAAAGAAAAUCUGGGCCAGGCAGGCAUCAAAAGUAAUAGUCUUGCGCUCAACCAGAAAGUCUGUAAUCAUUUUAAGGGUA | 0.59
GUUAACGGUCAUAGGCCAUGGAAACUAGGAGCACCAUUUCGCUGCCAGUGAAGAAAUGAACAAAGAAAAUCUGGGCCAGGCAGGCAUCAUAAGAAAUAGUCUUGCGCUCAUCCAGAAAGUCUGUAAUCAUUUUAAGGGUA | 0.11
GUUAACGGUCAUAGGCCAUGGAAACUAGGAGCACCAUUUCGCGGCCAGUGAAGCAAUGAACAAAGAAAAUCUGGGCCAGGCAGGCAUCAAAAGAAAUAGUCUUGCGCUCAACCAGAAAGUCUGUAAUCAUUUUAAGGGUA | 1.71
GUUAACGGUCAUAGGCCAUGGAAACUAGGAGCACCAUUUCGCUGCCAGUGAAGAAAUGAUCAAAGAAAAUCUGGGCCAGGCAGGCAUCAGAAGAAAUAGUCUUGCGCUCAACCAGAAAGUCUGUAAUCAUUUUAAGGGUA | 1.34
GUUAACGGUCAUAGGCCAUGGAAACUAGGAGCACCAUUUCGCUGCCAGUGAAGAAAUGAACAAAGAAAAUCUGGGCCAGGCAGGCAUCAAAAGAAAUAGUCAUGCGUUCAACCAGAAAGUCUGUAAUCAUUUUAAGGGUA | 0.01
GUUAACGGUCAUAGGCCAUGGAAACUAGGAGCACCAUUUCGCUGCCAGUGAAGAAAUGAACAAAGAAAAUCUGGGCCGGGUAGGCAUCAAAAGAAAUAGUCUUGCGCUCAACCAGAAAGUCUGUAAUCAUUUUAAGGGUA | 0.14
GUUAACGGUCAUAGGCCAUGGAAACUAGGAGCACCAUUUCGCUGCCAGUUAAGAAAUGAACAAAGUAAAUCUGGGCCAGGCAGGCAUCAAAAGAAAUAGUCUUGCGCUCAACCAGAAAGUCUGUAAUCAUUUUAAGGGUA | 2.16
GUUAACGGUCAUAGGCCAUGGAAACUAGGAGCACCAUUUCGCUGCCAGUGAAGAAAUGAACAAAGAAGAUCUGGGCCAGGCAGGCAUCAAAUGAAAUAGUCUUGCGCUCAACCAGAAAGUCUGUAAUCAUUUUAAGGGUA | 1.87
GUUAACGGUCAUAUGCCAUGGAAACUAGGAGCACCAUUUCGCUGCCAAUGAAGAAAUGAACAAAGAAAAUCUGGGCCAGGCAGGCAUCAAAAGAAAUAGUCUUGCGCUCAACCAGAAAGUCUGUAAUCAUUUUAAGGGUA | 1.52
GUUAACGGUCAUAGGCCAUGGAAACUAGGAGCACCAUUUCGCUGCCAGUGAAGAAAUGAACAAAGAAAAUCUGGGCCAGGCAGGCAUCAAAAGAAAUAGACUUGCGCUCAACCAGAAAGUCUAUAAUCAUUUUAAGGGUA | 0.47
GUUAACGGUCAUAGGCCGUGGAAACUAGGAGCACCAUUUCGCUGCCAGUGAAGAAAUGAACAAAGAAAAUCUGGGCCAGGCAGGCAUCAAAAGAAAUAGUCUUGCGCUUAACCAGAAAGUCUGUAAUCAUUUUAAGGGUA | 0.82
GUUAACGGUCAUAGGCCAUGGAAACUAGGAGCACCAUUUCGCUGCCAGUGAGGAAAUGAACAAAGAAAAUCUGGGCCAGGCAGGCAUCAAAAGAAAUAGUCUUGCGCUCAACCAGAAAGUCUGUAAUCACUUUAAGGGUA | 0.75
GUUAACGGUCAUAGGCCAUGGAAACUAGGAGCACCAUUUCGCUGCCAGUGAAGGAAUGAACAAAGAAAAUCUGGGCCAGGCGGGCAUCAAAAGAAAUAGUCUUGCGCUCAACCAGAAAGUCUGUAAUCAUUUUAAGGGUA | 0.61
GUUAACGGUCAUAGGCCAUGGAAACUAGGAGCACCAUUUCGCUGCCAGUGAAGAAAUGAACAAAGGAAAUCUGGGCCAGGCAGGCAUCAAAAGAGAUAGUCUUGCGCUCAACCAGAAAGUCUGUAAUCAUUUUAAGGGUA | 1.54
GUUAACGGUCAUAGGCCAUGGAAACUAGGAGCACCAUUUCGCUGCCAGUGAAGAGAUGAACAAAGAAAAUCUGGGCCAGGCAGGCAUCAAAAGAAAUAGUCAUGCGCUCAACCAGAAAGUCUGUAAUCAUUUUAAGGGUA | 0.81
GUUAACGGUCAUAGGCCAUGGAAACUAGGAGCACCAUUUCGCUGCCAGCGAAGAAAUGAGCAAAGAAAAUCUGGGCCAGGCAGGCAUCAAAAGAAAUAGUCUUGCGCUCAACCAGAAAGUCUGUAAUCAUUUUAAGGGUA | 1.24

Variant | self-cleavage
GUUAACGGUCAUAGGCCAUGGAAACUAGGAGCACCAUUUCGCUGCCAGUGAAGAAAUGAACAAAGAAAAUCUGGGCCAGGCGGGCAUCAAAAGAAAUAGUCUUGCGCUCAACCAGAAAGUCUGAAAUCAUUUUAAGGGUA | 0.32
GUUAACGGUCAUAGGCCAUGGAAACUAGGAGCACCAUUUCGCUACCAGUGAAGAAAUGAACAAAGAAAAUCUGGGCCAGGCAGGCAUCAAAAGAGAUAGUCUUGCGCUCAACCAGAAAGUCUGUAAUCAUUUUAAGGGUA | 1.76
GUUAACGGUCAUAGGCCAUGGAAGCAAGGAGCACCAUUUCGCUGCCAGUGAAGAAAUGAACAAAGAAAAUCUGGGCCAGGCAGGCAUCAAAAGAAAUAGUCUUGCGCUCAACCAGAAAGUCUGUAAUCAUUUUAAGGGUA | 0.98
GUUAACGGUCAUAGGCCAUGGAAACUAGGAGCACCAUUUCGUUGCCAGUGAAGAAAUGAACAAAGAAAAUCUGGGCCAGGCAGGCAUCAAAAGAAAUAGUCUUGCGCUCAACCAGGAAGUCUGUAAUCAUUUUAAGGGUA | 0.68
GUUAACGGUCAUAGGCCAUGGAAGCUAGGAGCACCAUUUCGCUGCCAGUGAAGAAAUGAACAAAGAAAAUCUGGGCCAGGCAGGCAUCAAAAGAAAUAGUCUUUCGCUCAACCAGAAAGUCUGUAAUCAUUUUAAGGGUA | 0.01
GUUAACGGUCAUAGGCCAUGGAAACUAGGAGCACCAUUUCGCUGCCAGUGAAGAAAUGAACAAAGAAAAUCUGGGCCAGGCAGGCAUCAAAAGAAAUAGUCUUGCGCUCAACCAGAGAGUCUGUAAUCACUUUAAGGGUA | 0.39
GUUAACGGUCAUAGGCCAUGGAAACUAGGAGCACCAUAUCGCCGCCAGUGAAGAAAUGAACAAAGAAAAUCUGGGCCAGGCAGGCAUCAAAAGAAAUAGUCUUGCGCUCAACCAGAAAGUCUGUAAUCAUUUUAAGGGUA | 1.3
GUUAACGGUCAUAGGCCAUGGAAACUAGGAGCACCAUUUCGCUGCCAGUGAAGAAAUGAACAAAGUAAAUCUGGGCCAGGCAGGCAUCAAAAGAAAUAGUCUUGCGCUCAGCCAGAAAGUCUGUAAUCAUUUUAAGGGUA | 0.01
GUUAACGGUCAUAGGCCAUGGAAACUAGGAGCACCAUUUCGCUGACAGUGAAGAAAUGAACAAAGAAAAUCUGGGCCAGGCAGGCAUCAAAAGAAAUAAUCUUGCGCUCAACCAGAAAGUCUGUAAUCAUUUUAAGGGUA | 0.92
GUUAACGGUCAUAGGCCAUGGAAACUAGGAGCACCAUUUCGCUGCCAGUGAAGAAAUGAACAAAGAAAAUCUGGGCUAGGCAGGCAUCAAAAGAAAUAGUCUUGCGCUCAACCAGAAAGCCUGUAAUCAUUUUAAGGGUA | 1.21
GUUAACGGUCAUAGGCCACGGAAACUAGGAGCACCACUUCGCUGCCAGUGAAGAAAUGAACAAAGAAAAUCUGGGCCAGGCAGGCAUCAAAAGAAAUAGUCUUGCGCUCAACCAGAAAGUCUGUAAUCAUUUUAAGGGUA | 1.5
GUUAACGGUCAUAGGCCAUGGAAACUAGGAGCACCAUUUCGCUGCCAGUGAAGAAAUGAACAAAGAAGAUCUGGGCCAGGCAGGCAUCAAAAGAAAUAGUCUUGCGCUCAACCUGAAAGUCUGUAAUCAUUUUAAGGGUA | 0.04
GUUAACGGUCAUAGGCCAUGGAAACUAGGAGCACCAUUUCGCUACCAGUGAAGAAAUGAACAAAGAAAAUCUGGGCCAGGCAGGCAUCAAAAGAAAUAGUCUUGCGCCCAACCAGAAAGUCUGUAAUCAUUUUAAGGGUA | 0.01
GUUAACGGUCAUAGGCCAUGGAAACUAGGAGCACCAUUUCGCUGCCAGUGAAGAAAUGAACAAAGAAAAUUUGGGCCAGGCAGGCAUCAAAGGAAAUAGUCUUGCGCUCAACCAGAAAGUCUGUAAUCAUUUUAAGGGUA | 0.52
GUUAACGGGCAUAGGCCAUGGAAACUAGGAGCACCAUUUCGCUGCCAGUGAAGAAAAGAACAAAGAAAAUCUGGGCCAGGCAGGCAUCAAAAGAAAUAGUCUUGCGCUCAACCAGAAAGUCUGUAAUCAUUUUAAGGGUA | 0.51
GUUAACGGUCAUAGGCCAUGGAAACUAGGAGCACCAUUUCGCUGCCAGUGAAGAAAUGAACAAAGAAAAUCUGGGCCAGGCAGGCAUCAAAAGAAAUAGUCUUGCCCUCAACCAGAAAGUCUGUAACCAUUUUAAGGGUA | 0
GUUAACGGUCAUAGGCCAUGGAAACUAGGAGCACCAUUUCGCUGCCAUUGAAGAAAUGAACAAAGAAAAUCUGGGCCAGGCAGGCAUCAAAAGAAAUAGUCUUGCGCUCAACCAGAAAGUCUGUAAUCAUUUUAAGGGUA | 1.61
GUUAACGGUCAUAGGCCAUGGAAACUAGGAGCACCAUUUCGCUGCCAGUGAAGAAGUGAACAAAGAAAAUCUGGGCCAGGCAGGCAUCAAAAGAAAUAGUCUUGCGCUCAACCAGAAAGUCCGUAAUCAUUUUAAGGGUA | 0.91
GUUAACGGUCAUAGGCCAUGGAAACUAGGAGCACCAUUUCGCUGCCAGUGAAGAAAUGAACAAAGAAAAUCUGGGCCAGGCAGGCAUCAAAAGAAAUAGUCUUGCGCCCAACCAGAAAGUCAGUAAUCAUUUUAAGGGUA | 0.01
GUUAACGGUCAUAGGCCAUGGAAACUAGGAUCACCAUUUCGCUGCCAGUGAAGAAAUGAACAAAGAAAAUCUGGGCCAGGCAGGCAUCAAAAGAAAUAGUCAUGCGCUCAACCAGAAAGUCUGUAAUCAUUUUAAGGGUA | 2.03
